Reference: publication PMC4974639, “Crystal structures of APOBEC3G N-domain alone and its complex with DNA”

What was measured:
rA3G-CD1 (loop-8 mutant) [1] = target: T1, rA3G-CD1 (loop-8 mutant) (Macaca mulatta (rhesus macaque), UniProt M1GSK9 1-138+=AEAG+147-196, internal_change); assay: ITC; n=1.47; ITC: 100 mM NaCl, 50 mM HEPES pH 7.5, 25 C; EMSA: 60 mM HEPES pH 7.5, 100 mM NaCl, on ice 10 min, native PAGE; conditions: protein: recombinant; tags: GST tag removed with PreScission (pGEX-6P-1); chain copies: 2
rA3G-CD1 Y124A = rA3G-CD1 Y124A (Macaca mulatta (rhesus macaque), UniProt M1GSK9 1-138+=AEAG+147-196, Y124A;internal_change); assay: ITC; ITC: 100 mM NaCl, 50 mM HEPES pH 7.5, 25 C; EMSA: 60 mM HEPES pH 7.5, 100 mM NaCl, on ice 10 min, native PAGE; conditions: protein: recombinant; tags: GST tag removed with PreScission (pGEX-6P-1)
rA3G-CD1 FWKL mutant = rA3G-CD1 FWKL mutant (Macaca mulatta (rhesus macaque), UniProt M1GSK9 1-138+=AEAG+147-196, F126Y;W127S;K180S;L184S;internal_change); assay: as above; conditions: protein: recombinant; tags: GST tag removed with PreScission (pGEX-6P-1)
rA3G-CD1 (loop-8 mutant) [2] = target: T1, rA3G-CD1 (loop-8 mutant); assay: ITC; n=0.83; ITC: 100 mM NaCl, 50 mM HEPES pH 7.5, 25 C; EMSA: 60 mM HEPES pH 7.5, 100 mM NaCl, on ice 10 min, native PAGE; conditions: protein: recombinant; tags: GST tag removed with PreScission (pGEX-6P-1); chain copies: 2
rA3G-CD1 (loop-8 mutant) [3] = target: T1, rA3G-CD1 (loop-8 mutant); assay: EMSA; ITC: 100 mM NaCl, 50 mM HEPES pH 7.5, 25 C; EMSA: 60 mM HEPES pH 7.5, 100 mM NaCl, on ice 10 min, native PAGE; conditions: protein: recombinant, tags: GST tag removed with PreScission (pGEX-6P-1), chain copies: 2

T1 sequence (M1GSK9 entry or part of it | mutant): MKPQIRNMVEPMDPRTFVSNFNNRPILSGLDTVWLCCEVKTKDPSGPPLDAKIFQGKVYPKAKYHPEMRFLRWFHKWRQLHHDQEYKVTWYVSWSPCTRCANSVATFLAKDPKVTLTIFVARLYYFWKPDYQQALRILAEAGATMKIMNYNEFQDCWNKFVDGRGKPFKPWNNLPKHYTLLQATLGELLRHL
Chain of rA3G-CD1 FWKL mutant (M1GSK9 entry or part of it F126Y;W127S;K180S;L184S/| mutant): as the sequence (M1GSK9 entry or part of it | mutant) above, with F126Y, W127S, K176S, L180S counted along it
Chain of rA3G-CD1 Y124A (M1GSK9 entry or part of it Y124A/| Y124A Y124A): as the sequence (M1GSK9 entry or part of it | mutant) above, with Y124A counted along it

| Binder | binding result (rA3G-CD1 Y124A) | binding result (rA3G-CD1 FWKL mutant) | other results |
| --- | --- | --- | --- |
| TTTTTTTTTT (ssDNA) [10 nt poly-dT ssDNA] | no binding | no binding | Kd (rA3G-CD1 (loop-8 mutant) [1]): 1570 ± 310 nM |
| UAUUCAUUAU (ssRNA) [10 nt RNA] | no binding | no binding | Kd (rA3G-CD1 (loop-8 mutant) [2]): 1490 ± 180 nM |
| ATTATTATTATTTATCCCTATTTATATTTATTGTTATTGTTATTGTTATA (ssDNA) [50 nt ssDNA] |  |  | binding result (rA3G-CD1 (loop-8 mutant) [3]; label: 5'-FAM (EMSA)): binds |
| AUUAUUAUUAUUUAUCCCUAUUUAUAUUUAUUGUUAUUGUUAUUGUUAUA (ssRNA) [50 nt RNA] |  |  | binding result (rA3G-CD1 (loop-8 mutant) [3]; label: 5'-FAM): binds |
